Measurements: patent CN110343173A (INST MICROBIOLOGY CAS, dated 2019)

Key:
[1] = molecular target: YFV CNYF01/2016 (YFV-China) 毒株膜蛋白E蛋白胞外区, C端6xHis标签, 大肠杆菌表达复性 (yellow fever virus, strain CNYF01/2016 …, UniProt Q1X881 286-683)
YFV China病毒 (E蛋白, 病毒颗粒上) = YFV China病毒 (E蛋白, 病毒颗粒上) (yellow fever virus, strain CNYF01/2016 …, UniProt Q1X881 286-683); test: cell-based or functional assay
YFV China病毒 (E蛋白, 病毒颗粒上), sequence (Q1X881 286-683, tags left off): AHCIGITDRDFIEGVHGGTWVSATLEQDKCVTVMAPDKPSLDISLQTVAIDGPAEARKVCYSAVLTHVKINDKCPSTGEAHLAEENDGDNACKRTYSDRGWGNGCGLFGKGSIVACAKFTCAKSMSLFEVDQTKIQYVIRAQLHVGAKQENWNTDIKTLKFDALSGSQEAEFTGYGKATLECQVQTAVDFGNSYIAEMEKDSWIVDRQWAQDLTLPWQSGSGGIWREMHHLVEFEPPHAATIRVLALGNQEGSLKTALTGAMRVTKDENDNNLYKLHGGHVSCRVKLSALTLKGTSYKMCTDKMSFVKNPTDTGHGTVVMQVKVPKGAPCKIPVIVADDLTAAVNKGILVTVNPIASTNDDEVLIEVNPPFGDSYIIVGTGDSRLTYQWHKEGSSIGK

YFV CNYF01/2016 (YFV-China) 毒株膜蛋白E蛋白胞外区, C端6xHis标签, 大肠杆菌表达复性, sequence (Q1X881 286-683, tags left off): as above

B1: 人源单克隆抗体YD73 (antibody, V domains shown)
VH: QVQLVQSGAEVKKPGASVKVSCKASGYTFIAYGISWVRQAPGQGLEWMGWISAHNGNTNYAQKFQGRVTVTTDTTTRTAFMELRNLRSDDTAVYYCARAPWEYNYRSSGYYDSPYWGQGTLVTVSS
VL: EIVLTQSPGTLSLSPGERATLSCRASQSVVSTYLAWYQQKPGQAPRLLIYDTSTRATGIPDRFSGSGSGTDFTLTISRLEPEDFAVYYCQHYDSSPPWTFGQGTKVEIKR
For B1, which Kd [1] is on record?
Its Kd is 0.588 nM.

And the “中和试验 IC50 (Vero细胞感染, FACS检测阳性细胞比例)” value (YFV China病毒 (E蛋白, 病毒颗粒上))?
The value was 3.7 ng/mL.
